Reference: the nanobody polyreactivity screen of Harvey et al. (2022)

test: yeast display, Sf9 membrane polyspecificity reagent, FACS + sequencing; frameworks hold sequencing errors
How it was run: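 A synthetic nanobody library was expressed on Saccharomyces cerevisiae BJ5465 by galactose induction for 36–48 hours. The library was stained for 1 hour at 4 °C with 10% biotinylated, detergent-solubilized Sf9 membrane reagent and enriched with streptavidin microbeads before FACS. Low and high (top ~1%) gates were set on anti-HA fluorescence for expression and streptavidin fluorescence for reagent binding, and each polyreactivity label reflects the gate of origin.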

Row | Sequence | polyreactivity (PSR sort gate)
1 | QVQLVESGGGFVQAGGSLRLSCAASGLIFSWYDMGWYRQAPGKERELVAAITTDGDDTYYADSVKGRFTISRDNAKNTVYLQMNSLKPEDTAVYYCAADSELAIRYPDRDYDSWGQGTQVTVSS | low polyreactivity
2 | QVQLVESGGGLVQAGGSLRLSCAASGRIFVWNTMGWYRQAPGKERELVAAITSGGSTTYADSVKGRFTISRDNAKNSVSFQMNSLKPEDTAVYYCNTELDLYHPGDDYWGQGTQVTVSS | high polyreactivity
3 | QVQLVESGGGLVQAGGSLRLSCAASGRIYSVYGLGWYRQAPGKDRELVAAISSSAGSTNYADSVKGRFTISRDNAKNTVYLQMNSLKPEDTAVYYCAAYYRRVVYYPTAYYIRKYDYWGQGTQVTVSS | high polyreactivity
4 | QVQLVESGGGLVQAGGSLRLSCAASGSIFPFYAMGWYRQAPGKERELVAAINYSAGSTYYADSVKGRFTISRDNAKYTVYLQMNSLKPEDTAVYYCAKEVSAYEMDYWGQGTQVTVSS | low polyreactivity
5 | QVQLVESGGGLVQAGGSLRLSCAASGGTIAYAMGWYRQAPGKERELVAAISKHGGRTYYADSVKGRFTISRDNAKNTVYLQMNSLKPEDSAVYYCAADAFRGFYWGQGTQVTVSS | high polyreactivity
6 | QVQLVESGGGLDQAGGSLRLSCAASGFTFRFYAIGWYRQAPGKERELVAAIDTSGGRTYYADSVKGRFTISRDNANNTVYLQMNSLKPEDTAVYYCNAQVLYRYDYWGQGTQVTVSS | high polyreactivity
7 | QVQLVESGGGLVQAGGSLRLSCAASGSTYRPYAMGWYRQAPVKERELVAAISWSGGRTYYADSVKGRFTISRDNAKNNVYLPMNSLKPEDTAVYYCNRAGRQPKNTYDYWGQGTQVTVSS | high polyreactivity
8 | QFQLVESGGGLVQAGGSLRLSCDASGSIFSYYAMGWYRQAPGKERELVAAISQSGGTTYYADSLKGRFTISRDNEKNTVYLQMNSLKPEDTAVYYCAARAQSSFDTQYYYWGQGTQVTVSS | low polyreactivity
9 | QVQLVESVGGLVQAGGSLRLSCAASGRIFRSYTMGWYREATGKERELVAGIRASGGSTYYADSVKGRFTISRDNAKNTVYLQMNSVKPEDTAVYYCAARRYTTFGIRDYWGQGTQVTVSS | high polyreactivity
10 | QVQLVESGGGLVQAGGSLRLSCAASGSTFSYYAMGWYRQAPGKERELVASISSGGSTNYADSVKGRFTISRANAKNTVYLQMNSLKPEDSAVYYCKADSWTVNRRYYYYRYEYWGQGSQVTVSS | low polyreactivity
11 | QVQLVESVGGLVQAGGSLRLSSAASGFTFKYYAMVWYRQAPGKERELVAAISWSGTRTYYADSVKGRVTISRDNAKYTVYLQMNSLKPEDTAVYYCDADFNGRYDYWGQGTQVTVSS | high polyreactivity
12 | QVQLVESGGGLVQAGGSLRLSCAASGYIFYGYDMGWYRQAQGKERDLVAGITYSGGGGTHYADSVKGRFTISRDNAKNTVYLQMNSLKPEDTAVYYCAKADPQLNRNYYSYGMDYWGQGTQVTVSS | low polyreactivity
13 | QVQLVESGGGLVQAGGSLRLSCAASGSTFPIYAMGWYRQAPGKERELVASIRSGGSTYYADSVKGRFTMSRDNAKNTVYLQMNSLKPEDTAVYYCARRDYGVLNKGLGQEGDYWGQGTQVTVSS | low polyreactivity
14 | QVQLVESGGGLVQAGGSLRLSCAASGSIFGRNDMGWYRQAPGKERELVAAISGDTTTNYADSVKGRFTISRDNAKNTVYLQMNSLKPEDTAVYYCNRYSGGRWYPEYYYWGQGTQVTVSS | high polyreactivity
15 | QVQLVESGGGLVQAGGSRRLSCAASGRTFQYYAMGCYRQAPGKERELVASITYNGDITYYADSVKGRFTISRDNAKNTVYLQMNSLKPEDTAVYYCAATKFSDFGYQAVIGYGYWGQGTQVTVSS | low polyreactivity
16 | QVQLVESGGGLVQAGGSLRISCAASGITFSYYAMGWYIQAPGKERELVAAINSGGGSTYYADSVKGRFTISRDNAKNTVYLQMNRLKPEDTAVYYFAARYRSRYDYYYDRDYWGQGTQVTVSS | low polyreactivity
17 | QVQLVESGGGLVQAGGSLRLSCAASGSTLATYTMGWYRQAPGKERELVAAISFGGSTYYADSVKGRFTISRDNAKNTVYLQMNSLKPEDTAVYYCAVYGDSYWGAYYYSDGYWGQGTQVTVSS | low polyreactivity
18 | QVQLVESGGGLVQAGGSLRLSCAASGSTFVGYVMGWSRQAPGKERELVAAITRSGTSTYYADSVKGRFTISRDNAKNTVYLQMNSLKPEDTAVYYCARRYVSSDYYYWGQGTQVTVSS | low polyreactivity
19 | QVQLVESGGRLVQAGGSLRLSCAASGSIFFLYAKGWYRQAPGKERELVAAISGGGGSTYYADSVKGRFTISRDIAKYTVYLLMNSLKPEDTAVYYCAALSKTRGGFWGQGTQVTVSS | high polyreactivity
20 | QVQLVESGGGLVQAGGSLRLSCAASGGIFGYYVMGWYRQAPGKERELVAVITRGGSTNYADSLKGRFTISRDNAKNTVYLQMNSLKPEDTAVYYCNAGPAGYYDYDYWGQGTQVTVSS | low polyreactivity
21 | QVQLVESGGGLVQAGGSLRLSCAASGFIFTYNAMGWYRQAPGKERELVASIRSTGGSTYYADSVKGRFTISRDNAKNTVYLQMNSLKPEDTAVYYCAARARGTNMYYWGQGTQVTVSS | high polyreactivity
22 | QVQLVESGGGLVQAGGSLRLSCSASGIIFKYYAMGWYRQAPVKERELVAAISRSSGSTYYADSVKGRFTISRDNAKNTVYLQMNSLKPEDTAVYYCAASGWQQKLDYWVQGTQVTVSS | high polyreactivity

Row | Sequence | polyreactivity (PSR sort gate)
23 | QDQLVESGGALVQAGGSLRLSCAASGFTYYGNAMGWYRQAPGKERELVAAISSSGGITYYADSVKGRFTISRDNAKNTVYLQMNSLKPEDTAVYYCAAVQGTPDYEYDSWGQGTQVTVSS | low polyreactivity
24 | QVQLVESGGGLVQAGGSLRLSCAASGFTFRRNAMGWYRQAPGKERELVAAITASGGRTYYADSVKGRFTISRDYAKNTVYLQMNSLKPEDTAVFYCAARLRNIYYFRMGYWGQGTKVTVSS | high polyreactivity
25 | QVQLVESGGGLVQAGGSLRLSCAASGRIFRGYAMGWYRQAPGKERELVAAITRGGSTKYADSVKGRFTISRDNAKNTVYLQMNSLKPEDTAVYYCAKDSYPYVPLYRSRSLYGYWGQGTQVTVSS | high polyreactivity
26 | QVQLVESGGGLVQAGGSLSLSCAASGSILAVNAMGWYRQAPGKERELVAAISSRGGSTSYADSVKGRFTISRDNAKNTVYLQMNSLKPEDTAVYYCAVRAVRRLRTSVPVRFYYWGQGTQVTVSS | high polyreactivity
27 | QVQLVESGGGLVQAGGSLRLSCAASGRTFRINAMGWYRQAPGKERELVAAINDGGDTYADSVKGRFTISRDNANNTVYLQMNSLKPEDTAVYYCAAPLGGGARWGRWWLYDSWGQGTQVTVSS | low polyreactivity
28 | QVQLVESGGGLVQAGGSLRLSCAASGSIFYYYAMGWYRQAPGKERELVAAISTSSGRTYYADSVKGRFTISRDNAKNTVYLQMNSLKPEDTAVYYCATRYRRDGGSWGQGTQVTVSS | high polyreactivity
29 | QVQLVESGGGLVQAGGSLRLSCAASGRTFGSYAMGWYRQAPGKEREFVAAIYYGGGRTYYADSVKGRFSISRDNAKNTVYLQMNSLKAVDTAVYYCAADGVYRYNYPYLYTYDYWGQGTQVTVSS | low polyreactivity
30 | QVQLVESGGGLVQAGGSLRLSCAASGSIFRIYAMGWYRLEPGKERELVSGISKSVGSTYYADSVKGRFTISRDNAKNTVYLQMNSLKTEDTAVYYCNARRPSWGLDKYDYWGQGTQVTVSS | low polyreactivity
31 | QVQLVESGGGLVQAGGSLRLSCAASGFIFYYNTMGWYRQAPGKERELVAAISSGGRTYYADSVKGRFTISRDNAKNTVYLQMNSLKPEVTAVYYCNVVTYVKYGYWGQGTQVTVSS | high polyreactivity
32 | QVQLVESGGGLVQAGGSLRLSCAASGSTFDGYAMGWYTQAPGKERELVAAISKNGGRTYYADSVKGRFTISRDNAKNTVYLQMNSLKPEDTAVYYCAIDIIKYDYDYWGQGTQVTVSS | low polyreactivity
33 | QVQLVESGGGLVQAGGSLRLSCAGSGFTFAYYAMGWYRQAPGKERELVAAITRGGGRTFYADSVKGRFTISRDNAKNTVYLQMNSLKPEDTAVYYCAAVKDTTNSRGYGYWGQGTQVTVSS | high polyreactivity
34 | QVQLVESGGGFDQAGGSLRLSCAASGITFYDNVMGSYIQAPGKERELVAAITSGGSTNYSDSVKGRFTISRANAKNTVYLQMNSLKPEDTAVYYCAATPYGIGYDYWGQGTEVTVSS | low polyreactivity
35 | QVQLVESAAGLVLAGGSLRLSCAASGSIFRFYAMGWSRQAPGQERELVAGITLSGASTYYADSVKGRFTISRDNAKNTVYLQMNSLKPEDTAVYYCAKRYRLDGFYYWGQGTQVTVSS | high polyreactivity
36 | QVQLVESGGGLVQAGGSLRLSCAASGGTFKYYTMGWYRQAPGKERELVAAISSGGITYYADSVKGRFTISRDNAKNTVYLQMNSLKPEDTAVYYCNVVSYYIAGGWYEGDYWGQGTQVTVSS | low polyreactivity
37 | QVQLVESGGGLVQAGGSLRLSCAASGRTSKRYAMGWYRQAPGKERELVASIRGGDGSTYYADSVKGRFTISRDNAKNTVYLQMNSLKPEDTAVYYCARASSYGYYYWGQGTQVTVSS | high polyreactivity
38 | QVQLVESGGGLVQAGGSLRLSCAASGLTFYYYAKGWYRQAPGKERDFVAAISRSGGTTYYADSVKGRYTISRDNAKNTVYLQMNSLKPEDTAVYYCNAQWCRYWPSQVIFDYWGQGTQVTVSS | high polyreactivity
39 | QVQLVETGGGIVQAGASLRLSCAASGRIFPPYAMGWYRQAPGKERELVAAISSSGGSTYYADSVKGRFTISRDNGKNTVYLQMNSLKPEDTAVYYCATFFARGYNSWGQGTQVTVSS | high polyreactivity
40 | QVQLVESGGGLVQAGGSLRLSCAASGFIFTYNAMGWYIQAPGKEREFVASISRSGGRTYYADSVKGRFTISRDNAKNTVYLQMNSLKPEDTAVYYCAARNAYVYGMDYWGQGTQVTVSS | low polyreactivity
41 | QVQLVESGGGLVQAGGSLRISCAASGRIFGLYAMGWYRQAPGKERELVATINNSGGSTYYADSVKGRFTISRDNAKNTVYLEMKSLKPEDTAVYYCNAEFLYAASFIEYDYWGQVTQVTVSS | high polyreactivity
42 | QFQLVESGGGLDQAGGSLRISCAPSGITFEYYTMGLYRQAPGKEIEFVAAITQGGGTTYYADSVKGRFTISRDNEKNTVYLQMNSLKPEDTAVYYCAAYVGYLLLYYPTYYYWGQGTQVTVSS | low polyreactivity
43 | QVQLVESGGGLVQAGGSLRLSCAASGRNFKQYAMGWYRQAPGKERELVAVITRGGGSTYYADSVKGRFTISRDNAKNTVYLQMNSLKPEDTAVYYCAARGTQAPPGRRTGGYNSWGQGTQVTVSS | high polyreactivity
